Tests used:
Assay in all cases: IEDB peptide-MHC binding, purified MHC/competitive/radioactivity; filed as Kd, often an IC50 or EC50 that approximates it; ≥ and ≤ were set here for values at or beyond the usual limits of such assays
HLA-A*31:01 = target: HLA-A*31:01
HLA-A*33:01 = target: HLA-A*33:01
HLA-A*03:01 = target: HLA-A*03:01
HLA-A*68:01 = target: HLA-A*68:01
HLA-A*11:01 = target: HLA-A*11:01
[1] = source organism: Dengue virus 3 Martinique/1243/1999
[2] = source organism: Dengue virus 4 Dominica/814669/1981
[3] = source organism: SARS coronavirus Tor2
[4] = source organism: Vaccinia virus WR
[5] = source organism: Mammarenavirus guanaritoense
[6] = source organism: Dengue virus 2 Jamaica/1409/1983
[7] = source organism: Dengue virus 1 Brazil/97-11/1997
[8] = source organism: Mammarenavirus machupoense
[9] = source organism: Lymphocytic choriomeningitis virus (strain Armstrong)
[10] = source organism: Dengue virus 4 Philippines/H241/1956

Sequence	Kd (HLA-A*31:01; [4])	Kd (HLA-A*33:01; [4])	Kd (HLA-A*03:01; [4])	Kd (HLA-A*68:01; [4])	Kd (HLA-A*11:01; [4])	other results
AALAFHLTSR	–	–	–	–	–	Kd (HLA-A*31:01; [1]): 17.5 nM
AALSEGVYR	–	–	–	–	–	Kd (HLA-A*31:01; [2]): 169 nM
AAMQRKLEK	–	–	–	–	–	Kd (HLA-A*31:01; [3]): ≥ 21200 nM; Kd (HLA-A*33:01; [3]): ≥ 77700 nM; Kd (HLA-A*03:01; [3]): 7010 nM; Kd (HLA-A*68:01; [3]): ≥ 77700 nM; Kd (HLA-A*11:01; [3]): 257 nM
AARILSEKRK	≥ 63700 nM	≥ 70000 nM	7880 nM	8050 nM	3140 nM	–
ACRCGRFQK	–	–	–	–	–	Kd (HLA-A*31:01; [5]): 1440 nM; Kd (HLA-A*33:01; [5]): ≥ 27300 nM; Kd (HLA-A*03:01; [5]): 3570 nM; Kd (HLA-A*11:01; [5]): 5130 nM
AISGDDCVVK	–	–	–	–	–	Kd (HLA-A*11:01; [6]): 2070 nM
ALCEKALKY	–	–	–	–	–	Kd (HLA-A*31:01; [3]): ≥ 65100 nM; Kd (HLA-A*33:01; [3]): ≥ 35800 nM; Kd (HLA-A*03:01; [3]): 234 nM; Kd (HLA-A*68:01; [3]): 13000 nM; Kd (HLA-A*11:01; [3]): 1440 nM
AMDEFIQRYK	–	–	–	–	–	Kd (HLA-A*31:01; [3]): 221 nM; Kd (HLA-A*33:01; [3]): 13300 nM; Kd (HLA-A*03:01; [3]): 39 nM; Kd (HLA-A*68:01; [3]): 8300 nM; Kd (HLA-A*11:01; [3]): 59 nM
AQCFKMFYK	–	–	–	–	–	Kd (HLA-A*31:01; [3]): 6.24 nM; Kd (HLA-A*33:01; [3]): 878 nM; Kd (HLA-A*03:01; [3]): 25.6 nM; Kd (HLA-A*68:01; [3]): 177 nM; Kd (HLA-A*11:01; [3]): 2.52 nM
ASKTINALVY	11100 nM	≥ 70000 nM	761 nM	≥ 41800 nM	1010 nM	–
AVFKNSFLGK	–	–	–	–	–	Kd (HLA-A*31:01; source organism: Variola virus): ≥ 70000 nM; Kd (HLA-A*33:01; source organism: Variola virus): ≥ 70000 nM; Kd (HLA-A*03:01; source organism: Variola virus): ≥ 70000 nM; Kd (HLA-A*68:01; source organism: Variola virus): ≥ 70100 nM; Kd (HLA-A*11:01; source organism: Variola virus): ≥ 69700 nM
CLEWLRAKRK	2720 nM	11300 nM	1000 nM	≥ 57300 nM	19500 nM	–
CTTTGEHRR	–	–	–	–	–	Kd (HLA-A*68:01; source organism: Dengue virus 2 Peru/IQT2913/1996): 27.6 nM
DADPPIPYSR	10100 nM	2690 nM	≥ 70100 nM	509 nM	16400 nM	–
DARYCSEFIR	1130 nM	24.3 nM	≥ 70100 nM	249 nM	≥ 37200 nM	–
DICSKHMDAR	1480 nM	126 nM	≥ 47100 nM	605 nM	≥ 69800 nM	–
DLPSGFNTLK	–	–	–	–	–	Kd (HLA-A*31:01; [3]): ≥ 36700 nM; Kd (HLA-A*33:01; [3]): 10400 nM; Kd (HLA-A*03:01; [3]): 2300 nM; Kd (HLA-A*68:01; [3]): 11 nM; Kd (HLA-A*11:01; [3]): 1220 nM
DSIKDVIHDY	15400 nM	≥ 70000 nM	≥ 70100 nM	10200 nM	5140 nM	–
DVDIYDAVR	14000 nM	2280 nM	≥ 53300 nM	179 nM	≥ 77900 nM	–
DVQRTRCKY	≥ 77900 nM	≥ 35300 nM	≥ 53900 nM	9190 nM	≥ 77900 nM	–
EFKEFAAGRR	–	–	–	–	–	Kd (HLA-A*33:01; [7]): 37.6 nM
EIIFLKLFK	602 nM	99.3 nM	16.1 nM	0.699 nM	1.25 nM	–
EIIFLKLFKK	20 nM	129 nM	88.2 nM	5.36 nM	17.7 nM	–
EIKQGRVNK	≥ 51300 nM	3260 nM	640 nM	88.4 nM	517 nM	–
EKVETWALR	–	–	–	–	–	Kd (HLA-A*33:01; [1]): 74.9 nM; Kd (HLA-A*68:01; [1]): ≥ 22900 nM
FALKKLIIDR	1070 nM	3300 nM	≥ 70100 nM	550 nM	2100 nM	–

Sequence	Kd (HLA-A*31:01; [4])	Kd (HLA-A*33:01; [4])	Kd (HLA-A*03:01; [4])	Kd (HLA-A*68:01; [4])	Kd (HLA-A*11:01; [4])	other results
FIDRGSIKIK	2230 nM	3960 nM	495 nM	860 nM	708 nM	–
FTQHLLNIR	≥ 77900 nM	≥ 77700 nM	≥ 78000 nM	≥ 77700 nM	≥ 77900 nM	–
GSWATSSFR	0.56 nM	226 nM	111 nM	54.1 nM	7.38 nM	–
GYVLGVFLR	–	–	–	–	–	Kd (HLA-A*31:01; [2]): 53.2 nM; Kd (HLA-A*33:01; [2]): 1820 nM
HLKCRLKMDK	–	–	–	–	–	Kd (HLA-A*03:01; [7]): 68 nM
IANSNIIKNK	19900 nM	≥ 39300 nM	47.2 nM	212 nM	39.5 nM	–
IFFTTSLFLH	–	–	–	–	–	Kd (HLA-A*31:01; [5]): 1360 nM; Kd (HLA-A*33:01; [5]): 1040 nM; Kd (HLA-A*03:01; [5]): 1030 nM; Kd (HLA-A*68:01; [5]): 3490 nM; Kd (HLA-A*11:01; [5]): 17600 nM
IFMRDWNSK	8520 nM	8940 nM	11700 nM	2390 nM	8210 nM	–
IQRFSSLRR	55.9 nM	≥ 30400 nM	125 nM	11900 nM	1010 nM	–
IQVTISSYK	–	–	–	–	–	Kd (HLA-A*31:01; [3]): 139 nM; Kd (HLA-A*33:01; [3]): 7950 nM; Kd (HLA-A*03:01; [3]): 15.4 nM; Kd (HLA-A*68:01; [3]): 274 nM; Kd (HLA-A*11:01; [3]): 10.8 nM
KAEMQLKIDK	3270 nM	19800 nM	3720 nM	≥ 25200 nM	125 nM	–
KFGNSINVK	618 nM	≥ 77700 nM	7140 nM	≥ 46400 nM	6460 nM	–
KFLEFSNRVY	24.5 nM	≥ 70000 nM	≥ 39800 nM	≥ 68800 nM	10100 nM	–
KPKPAVRFAI	≥ 70000 nM	–	–	–	–	–
KQYDSTDFK	70.9 nM	≥ 25500 nM	61.8 nM	1860 nM	33.5 nM	–
KSINKVYGRY	64.3 nM	≥ 70000 nM	2610 nM	≥ 33500 nM	1190 nM	–
KSISSMTIR	3.64 nM	7710 nM	1280 nM	832 nM	281 nM	–
KSPLPSLEY	7390 nM	≥ 77700 nM	278 nM	≥ 77700 nM	228 nM	–
KSVTKSSSWK	376 nM	≥ 55700 nM	10 nM	79 nM	13.8 nM	–
KTNDINVRRR	17.9 nM	5470 nM	64.1 nM	848 nM	1460 nM	–
KVLRENTSPK	–	–	–	–	–	Kd (HLA-A*03:01; source organism: Homo sapiens): 28.9 nM
LLIWAYLSKK	1980 nM	2340 nM	42.1 nM	363 nM	124 nM	–
LLNGQGPMK	–	–	–	–	–	Kd (HLA-A*03:01; [1]): 16.2 nM
LNNSFYYMK	–	–	–	–	–	Kd (HLA-A*31:01; [8]): 26.4 nM; Kd (HLA-A*33:01; [8]): ≥ 77700 nM; Kd (HLA-A*03:01; [8]): 7240 nM; Kd (HLA-A*68:01; [8]): 67.7 nM; Kd (HLA-A*11:01; [8]): 619 nM
LQFAYSNRNR	–	–	–	–	–	Kd (HLA-A*31:01; [3]): 5.59 nM; Kd (HLA-A*33:01; [3]): 1270 nM; Kd (HLA-A*03:01; [3]): 890 nM; Kd (HLA-A*68:01; [3]): 1050 nM; Kd (HLA-A*11:01; [3]): 1730 nM
LSARNKLFKR	16.9 nM	1710 nM	≥ 70100 nM	124 nM	2680 nM	–

Sequence	Kd (HLA-A*31:01; [4])	Kd (HLA-A*33:01; [4])	Kd (HLA-A*03:01; [4])	Kd (HLA-A*68:01; [4])	Kd (HLA-A*11:01; [4])	other results
LSKRERQLAK	1600 nM	≥ 57900 nM	1360 nM	5940 nM	1120 nM	–
LTKFVSAALH	–	–	–	–	–	Kd (HLA-A*31:01; [9]): 864 nM; Kd (HLA-A*33:01; [9]): 3760 nM; Kd (HLA-A*68:01; [9]): 221 nM
LVMAFIAFLR	–	–	–	–	–	Kd (HLA-A*31:01; [7]): 73.5 nM; Kd (HLA-A*33:01; [7]): 106 nM; Kd (HLA-A*68:01; [7]): 31.8 nM; Kd (HLA-A*11:01; [7]): 1380 nM
LWRTLGRNKR	–	–	–	–	–	Kd (HLA-A*31:01; source organism: Dengue virus 3 Sri Lanka/1266/2000): 712 nM
MATYGWNLVK	–	–	–	–	–	Kd (HLA-A*11:01; [7]): 370 nM
MLNIMNRRK	–	–	–	–	–	Kd (HLA-A*03:01; [7]): 21 nM
MLVTPSMTMR	–	–	–	–	–	Kd (HLA-A*31:01; [1]): 111 nM; Kd (HLA-A*68:01; [1]): 54.7 nM
MYFHRRDLR	–	–	–	–	–	Kd (HLA-A*31:01; [6]): 0.137 nM; Kd (HLA-A*33:01; [6]): 5.64 nM; Kd (HLA-A*68:01; [6]): 346 nM
NTTSKMLLNR	–	–	–	–	–	Kd (HLA-A*33:01; [10]): 100 nM; Kd (HLA-A*68:01; [10]): 179 nM
QAAILMGLDK	–	–	–	–	–	Kd (HLA-A*68:01; [7]): 377 nM
RLKMDKLTLK	–	–	–	–	–	Kd (HLA-A*03:01; [7]): 13 nM
RQMEGEGIFK	–	–	–	–	–	Kd (HLA-A*03:01; [6]): 21.5 nM; Kd (HLA-A*11:01; [6]): 127 nM
RTLAKEGIKR	–	–	–	–	–	Kd (HLA-A*31:01; [6]): 14.3 nM
SAKLRWFVER	–	–	–	–	–	Kd (HLA-A*31:01; [6]): 26.3 nM; Kd (HLA-A*33:01; [6]): 46.5 nM
TANPVVTKK	–	–	–	–	–	Kd (HLA-A*11:01; [1]): 245 nM
TLGWLLQTPK	–	–	–	–	–	Kd (HLA-A*03:01; source organism: Homo sapiens): 7.5 nM
TTSKMLLNR	–	–	–	–	–	Kd (HLA-A*68:01; [10]): 59.8 nM; Kd (HLA-A*11:01; [10]): 178 nM
TVCYVLTGR	–	–	–	–	–	Kd (HLA-A*31:01; [6]): 10.3 nM; Kd (HLA-A*33:01; [6]): 1.6 nM; Kd (HLA-A*68:01; [6]): 15.2 nM
TYLALMATFK	–	–	–	–	–	Kd (HLA-A*33:01; [7]): 11 nM
VTAASAAQR	–	–	–	–	–	Kd (HLA-A*68:01; [1]): 43.2 nM
VTHSSAAQR	–	–	–	–	–	Kd (HLA-A*31:01; [6]): 25.8 nM; Kd (HLA-A*68:01; [6]): 42 nM
WYLWEVKKQR	–	–	–	–	–	Kd (HLA-A*33:01; [6]): 39.7 nM
YTIGTTHFQR	–	–	–	–	–	Kd (HLA-A*31:01; [6]): 44.3 nM; Kd (HLA-A*33:01; [6]): 6.12 nM; Kd (HLA-A*68:01; [6]): 17.3 nM
YYCGGLKNVR	–	–	–	–	–	Kd (HLA-A*33:01; [6]): 3.1 nM

Reference: the Immune Epitope Database (IEDB)
